{"source": "paper PMC10563079", "about": "(Molecules, 2023)", "molecules": {"B1": {"name": "double constrained cyclic peptide cyc2-4 (peptide)", "peptide": "CTPQATACMWDGKWCRKKC", "modifications": "disulfide 1-19, 8-15; not fully specified (N-terminus); printed as C_1_TPQA TAC_8_MW DGKWC_15_ RKKC_19_"}, "B2": {"name": "double constrained cyclic peptide cyc2-2 (peptide)", "peptide": "CTPQATACMLDGKWCRKKC", "modifications": "disulfide 1-19, 8-15; not fully specified (N-terminus); printed as C_1_TPQA TAC_8_ML DGKWC_15_ RKKC_19_"}, "B3": {"name": "cyclic peptide cyc1-1 (peptide)", "peptide": "CTPQATASMKDGKWERKKC", "modifications": "disulfide 1-19; not fully specified (N-terminus); printed as C_1_TPQATASMKDGKWERKKC_19_"}, "B4": {"name": "double constrained cyclic peptide cyc2-6 (peptide)", "peptide": "CTPQATACMLDGKWCEKKC", "modifications": "disulfide 1-19, 8-15; not fully specified (N-terminus); printed as C_1_TPQA TAC_8_ML DGKWC_15_ EKKC_19_"}, "B5": {"name": "cyclic peptide cyc1-7 (peptide)", "peptide": "CTPQATLTMKDGKWEEKKC", "modifications": "disulfide 1-19; not fully specified (N-terminus); printed as C_1_TPQA TLTMK DGKWE EKKC_19_"}, "B6": {"name": "cyclic peptide cyc1-3 (peptide)", "peptide": "CTPQATKSMLDGKWEEKKC", "modifications": "disulfide 1-19; not fully specified (N-terminus); printed as C_1_TPQA TKSML DGKWE EKKC_19_"}, "B7": {"name": "double constrained cyclic peptide cyc2-5 (peptide)", "peptide": "CTPQATACMKDGKWCWKKC", "modifications": "disulfide 1-19, 8-15; not fully specified (N-terminus); printed as C_1_TPQA TAC_8_MK DGKWC_15_ WKKC_19_"}}, "key": {"[1]": {"target": "T1, full-length PHGDH (1-533) (Homo sapiens, UniProt O43175)", "T1 construct": "the full-length PHGDH (1-533); made in house", "T1 sequence (O43175 1-533)": "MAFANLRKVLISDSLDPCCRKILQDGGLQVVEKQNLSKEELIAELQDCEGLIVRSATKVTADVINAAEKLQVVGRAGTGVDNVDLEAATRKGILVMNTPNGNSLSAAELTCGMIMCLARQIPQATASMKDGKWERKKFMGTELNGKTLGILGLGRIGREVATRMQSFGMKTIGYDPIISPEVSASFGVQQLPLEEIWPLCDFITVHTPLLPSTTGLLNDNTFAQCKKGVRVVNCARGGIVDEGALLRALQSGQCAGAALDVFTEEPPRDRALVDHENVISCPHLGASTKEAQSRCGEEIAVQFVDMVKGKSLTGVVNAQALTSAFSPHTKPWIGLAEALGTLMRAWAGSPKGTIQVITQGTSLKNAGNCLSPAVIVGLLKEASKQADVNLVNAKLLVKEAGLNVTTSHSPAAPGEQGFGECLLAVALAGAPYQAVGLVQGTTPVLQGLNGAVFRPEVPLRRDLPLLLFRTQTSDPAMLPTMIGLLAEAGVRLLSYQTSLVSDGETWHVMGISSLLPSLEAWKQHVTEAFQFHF", "experiment": "full-length PHGDH enzyme activity assay (NADH fluorescence)", "assay_type": "biochemical", "settings": "read-out: IC50 value (μM), full-length PHGDH activity", "procedure": "(§1) PHGDH activity in the presence of peptides was measured in 96-well plates (100 μL per well) at 25 °C, through monitoring the NADH fluorescence (excitation at 360 nm and emission at 460 nm) over time. PAST1 and its substrate glutamate were also included in order to prevent product inhibition. In the enzyme assays, protein expression and purification, including the truncated version of PHGDH (sPHGDH, 1-307), the full-length PHGDH (1-533), and PAST1, were carried out as described in our previous papers. To evaluate the effects of peptides on enzyme activity, the peptides were pre-incubated with enzyme samples (sPHGDH 453.3 nM or PHGDH 30.9 nM) in the assay buffer (HEPES 50 mM, pH 7.5, 10 mM MgCl2, and 1 mM EDTA) for 12 h. Then, 1.98 μM PAST1, 1 mM NAD^+, and 30 mM glutamate were added and pre-incubated for 10 min before initiating the enzyme reaction via the addition of the substrate (1 mM 3-PG). Fluorescence signals were recorded for 3 min with the kinetics-reading mode of the Biotek plate reader (Synergy). IC50 values were obtained through fitting the data using a three-parameter Hill model of the graph of log dose against the percentage inhibition from three repeated experiments. For those peptides containing two disulfide bonds, a second step of oxidation reaction was carried out to generate the second disulfide pair. […] The purified Acm-protected peptide was then treated with iodine (I2, 1 wt% in MeOH), dropwise under acidic conditions until the solution became brown."}, "sPHGDH (1-307)": {"target": "T2, sPHGDH (1-307) (Homo sapiens, UniProt O43175)", "T2 construct": "the truncated version of PHGDH (sPHGDH, 1-307); made in house", "T2 sequence (O43175 1-307)": "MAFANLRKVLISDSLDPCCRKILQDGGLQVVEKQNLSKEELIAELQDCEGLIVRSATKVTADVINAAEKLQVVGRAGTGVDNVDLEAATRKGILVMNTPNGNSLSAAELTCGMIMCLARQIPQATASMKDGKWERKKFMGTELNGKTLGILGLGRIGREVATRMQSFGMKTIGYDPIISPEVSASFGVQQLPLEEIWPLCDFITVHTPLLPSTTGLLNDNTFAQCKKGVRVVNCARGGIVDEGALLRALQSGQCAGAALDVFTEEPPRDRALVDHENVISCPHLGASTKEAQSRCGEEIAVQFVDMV", "experiment": "sPHGDH enzyme activity assay (NADH fluorescence)", "assay_type": "biochemical", "settings": "sPHGDH; for Inhibition Rate (%): peptide concentration of 50 µM", "procedure": "as §1"}, "[2]": {"target": "truncated version of PHGDH (sPHGDH, 1-307) (human) (UniProt O43175)"}}, "note": "Bridge positions count the residues as written; N and C are the ends. Ends that are not written are not given here. Peptide text beside a SMILES is read from it."}
{"molecule": "CSCC[C@@H]1NC(=O)[C@H](CO)NC(=O)[C@H](CC(C)C)NC(=O)[C@H]([C@@H](C)O)NC(=O)[C@H](C)NC(=O)[C@H](CCC(N)=O)NC(=O)[C@@H]2CCCN2C(=O)[C@H]([C@@H](C)O)NC(=O)[C@@H](NC(C)=O)CSSC[C@@H](C(=O)O)NC(=O)[C@H](CCCCN)NC(=O)[C@H](CCCCN)NC(=O)[C@H](CCC(=O)O)NC(=O)[C@H](CCC(=O)O)NC(=O)[C@H](Cc2c[nH]c3ccccc23)NC(=O)[C@H](CCCCN)NC(=O)CNC(=O)[C@H](CC(=O)O)NC(=O)[C@H](CCCCN)NC1=O", "note": "[Cyc1-2, C1TPQA TLSMK DGKWE EKKC19] (Ac-CTPQATLSMKDGKWEEKKC-OH; disulfide 1-19)", "values": [{"measurement": "IC50", "setting": "[1]", "result": "20.1 ± 2.6", "unit": "µM"}]}
{"molecule": "CSCC[C@@H]1NC(=O)[C@H](CO)NC(=O)[C@H](C)NC(=O)[C@H]([C@@H](C)O)NC(=O)[C@H](C)NC(=O)[C@H](CCC(N)=O)NC(=O)[C@@H]2CCCN2C(=O)[C@H]([C@@H](C)O)NC(=O)[C@@H](NC(C)=O)CSSC[C@@H](C(=O)O)NC(=O)[C@H](CCCCN)NC(=O)[C@H](CCCCN)NC(=O)[C@H](Cc2c[nH]c3ccccc23)NC(=O)[C@H](CCC(=O)O)NC(=O)[C@H](Cc2c[nH]c3ccccc23)NC(=O)[C@H](CCCCN)NC(=O)CNC(=O)[C@H](CC(=O)O)NC(=O)[C@H](CC(C)C)NC1=O", "note": "[Cyc1-5, C1TPQA TASML DGKWE WKKC19] (Ac-CTPQATASMLDGKWEWKKC-OH; disulfide 1-19)", "values": [{"measurement": "IC50", "setting": "sPHGDH (1-307); 12 h pre-incubation, read-out: IC50 Value", "result": "13.4 ± 2", "unit": "µM"}, {"measurement": "IC50", "setting": "[1]", "result": "37.1 ± 1.7", "unit": "µM"}]}
{"molecule": "CSCC[C@@H]1NC(=O)[C@H](CO)NC(=O)[C@H](C)NC(=O)[C@H]([C@@H](C)O)NC(=O)[C@H](C)NC(=O)[C@H](CCC(N)=O)NC(=O)[C@@H]2CCCN2C(=O)[C@H]([C@@H](C)O)NC(=O)[C@@H](NC(C)=O)CSSC[C@@H](C(=O)O)NC(=O)[C@H](CCCCN)NC(=O)[C@H](CCCCN)NC(=O)[C@H](CCC(=O)O)NC(=O)[C@H](CCC(N)=O)NC(=O)[C@H](Cc2c[nH]c3ccccc23)NC(=O)[C@H](CO)NC(=O)CNC(=O)[C@H](CC(N)=O)NC(=O)[C@H](CCCCN)NC1=O", "note": "[Cyc1-9, C1TPQA TASMK NGSWQ EKKC19] (Ac-CTPQATASMKNGSWQEKKC-OH; disulfide 1-19)", "values": [{"measurement": "IC50", "setting": "[1]", "result": "56.1 ± 3.4", "unit": "µM"}]}
{"molecule": "C1TPQA TAC8MK DGKWC15 WKKC19 (CTPQATACMKDGKWCWKKC; disulfide 1-19, 8-15; not fully specified (N-terminus); printed as C_1_TPQA TAC_8_MK DGKWC_15_ WKKC_19_) [Cyc2-5, cyc2-1 with R16W]", "values": [{"measurement": "Inhibition Rate (%)", "setting": "sPHGDH (1-307)", "result": 27, "unit": "%"}]}
{"molecule": "C1TPQA TAC8MW DGKWC15 RKKC19 (CTPQATACMWDGKWCRKKC; disulfide 1-19, 8-15; not fully specified (N-terminus); printed as C_1_TPQA TAC_8_MW DGKWC_15_ RKKC_19_) [Cyc2-4, cyc2-1 with K10W]", "values": [{"measurement": "Inhibition Rate (%)", "setting": "sPHGDH (1-307)", "result": 44, "unit": "%"}]}
{"molecule": "C1TPQA TASMK DGKWE RKKC19 (CTPQATASMKDGKWERKKC; disulfide 1-19; not fully specified (N-terminus); printed as C_1_TPQATASMKDGKWERKKC_19_) [Cyc1-1, head-to-tail disulfide-cyclized peptide (C1-C19) from the PHGDH dimerization loop]", "values": [{"measurement": "Inhibition Rate (%)", "setting": "sPHGDH (1-307)", "result": 40, "unit": "%"}, {"measurement": "inhibitory activity on sPHGDH (in words)", "setting": "sPHGDH (1-307)", "result": "limited activity"}]}
{"molecule": "C1TPQA TESML RGKWE EKKC19 (CTPQATESMLRGKWEEKKC; disulfide 1-19; not fully specified (N-terminus); printed as C_1_TPQA TESML RGKWE EKKC_19_) [Cyc1-4, single disulfide cyclic peptide with A7E and D11R]", "values": [{"measurement": "Inhibition Rate (%)", "setting": "sPHGDH (1-307)", "result": "None"}, {"measurement": "inhibitory activity on sPHGDH (in words)", "setting": "sPHGDH (1-307)", "result": "largely decreased or abolished the activity"}]}
{"molecule": "C1TPQA TKSML DGKWE EKKC19 (CTPQATKSMLDGKWEEKKC; disulfide 1-19; not fully specified (N-terminus); printed as C_1_TPQA TKSML DGKWE EKKC_19_) [Cyc1-3, single disulfide cyclic peptide with substitution A7K]", "values": [{"measurement": "Inhibition Rate (%)", "setting": "sPHGDH (1-307)", "result": 19, "unit": "%"}, {"measurement": "inhibitory activity on sPHGDH (in words)", "setting": "sPHGDH (1-307)", "result": "largely decreased or abolished the activity"}]}
{"molecule": "C1TPQA TLLMK DGKWE EKKC19 (CTPQATLLMKDGKWEEKKC; disulfide 1-19; not fully specified (N-terminus); printed as C_1_TPQA TLLMK DGKWE EKKC_19_) [Cyc1-8, cyc1-2 with substitution S8L]", "values": [{"measurement": "Inhibition Rate (%)", "setting": "sPHGDH (1-307)", "result": "None"}, {"measurement": "inhibitory activity on sPHGDH (in words)", "setting": "sPHGDH (1-307)", "result": "completely eliminated the activity"}]}
{"molecule": "C1TPQA TLSMK NGSWQ EKKC19 (CTPQATLSMKNGSWQEKKC; disulfide 1-19; not fully specified (N-terminus); printed as C_1_TPQA TLSMK NGSWQ EKKC_19_) [Cyc1-10, cyc1-9 with added A7L]", "values": [{"measurement": "Inhibition Rate (%)", "setting": "sPHGDH (1-307)", "result": "None"}, {"measurement": "inhibitory activity on sPHGDH (in words)", "setting": "sPHGDH (1-307)", "result": "inactive"}]}
{"molecule": "B1", "values": [{"measurement": "Inhibition rate of sPHGDH enzyme activity (NADH fluorescence) at 50 µM peptide; the pair blocked is the sPHGDH homo-dimer (m1+m1)", "setting": "[2]", "result": 44, "unit": "%"}]}
{"molecule": "B2", "values": [{"measurement": "IC50 of inhibition of sPHGDH enzyme activity (NADH fluorescence); the pair blocked is the sPHGDH homo-dimer (m1+m1)", "setting": "[2]", "result": 9.4, "unit": "µM"}]}
{"molecule": "B3", "values": [{"measurement": "Inhibition rate of sPHGDH enzyme activity (NADH fluorescence) at 50 µM peptide; the pair blocked is the sPHGDH homo-dimer (m1+m1)", "setting": "[2]", "result": 40, "unit": "%"}]}
{"molecule": "B4", "values": [{"measurement": "IC50 of inhibition of sPHGDH enzyme activity (NADH fluorescence); the pair blocked is the sPHGDH homo-dimer (m1+m1)", "setting": "[2]", "result": 15, "unit": "µM"}]}
{"molecule": "B5", "values": [{"measurement": "IC50 of inhibition of sPHGDH enzyme activity (NADH fluorescence); the pair blocked is the sPHGDH homo-dimer (m1+m1)", "setting": "[2]", "result": 5.6, "unit": "µM"}]}
{"molecule": "B6", "values": [{"measurement": "Inhibition rate of sPHGDH enzyme activity (NADH fluorescence) at 50 µM peptide; the pair blocked is the sPHGDH homo-dimer (m1+m1)", "setting": "[2]", "result": 19, "unit": "%"}]}
{"molecule": "B7", "values": [{"measurement": "Inhibition rate of sPHGDH enzyme activity (NADH fluorescence) at 50 µM peptide; the pair blocked is the sPHGDH homo-dimer (m1+m1)", "setting": "[2]", "result": 27, "unit": "%"}]}
